# Measurements: article PMC5964162
# Target: Human complement C1q (human) (UniProt P02745)
# Assay: ELISA
# Chain of UniProt P02745 (P02745 23-245, chain 1 of 3): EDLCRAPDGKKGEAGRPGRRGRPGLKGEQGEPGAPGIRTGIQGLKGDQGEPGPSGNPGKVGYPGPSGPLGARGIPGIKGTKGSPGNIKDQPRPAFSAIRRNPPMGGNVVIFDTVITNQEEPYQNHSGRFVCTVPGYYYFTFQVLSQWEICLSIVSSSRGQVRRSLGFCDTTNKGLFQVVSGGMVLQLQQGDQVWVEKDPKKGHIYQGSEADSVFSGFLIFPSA
# Chain of UniProt P02745 (P02746 28-253, chain 2 of 3, further chain): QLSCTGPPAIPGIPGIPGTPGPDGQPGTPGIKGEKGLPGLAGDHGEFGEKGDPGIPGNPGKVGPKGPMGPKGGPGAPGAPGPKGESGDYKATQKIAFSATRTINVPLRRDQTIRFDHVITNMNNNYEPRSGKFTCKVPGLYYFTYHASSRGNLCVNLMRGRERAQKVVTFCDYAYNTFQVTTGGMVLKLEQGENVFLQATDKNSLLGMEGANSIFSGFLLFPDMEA
# Chain of UniProt P02745 (P02747 29-245, chain 3 of 3, further chain): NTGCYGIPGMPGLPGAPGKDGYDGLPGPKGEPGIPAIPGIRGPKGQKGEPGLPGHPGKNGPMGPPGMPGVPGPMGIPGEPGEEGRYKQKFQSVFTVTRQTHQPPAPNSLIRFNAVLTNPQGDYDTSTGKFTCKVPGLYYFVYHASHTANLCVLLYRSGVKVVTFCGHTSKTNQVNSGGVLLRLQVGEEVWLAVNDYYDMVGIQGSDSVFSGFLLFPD
substance,measurement,value
Recombinant SntA protein of Streptococcus suis (from UniProt Q8VUN9 1-813) (natural protein),percent of C1q–IgG binding left with 50 µM SntA,3.34%
